Results on one molecule are retold here after patent publication US7932227 (UNIVERSITY OF VIRGINIA PATENT FOUNDATION, dated 2011).

One test has as its target T1, human syndecan-4 (SDC4) (human, UniProt P31431 19-198, heparan sulfate chains).
T1 construct: also called native SDC4
T1 sequence (looked up): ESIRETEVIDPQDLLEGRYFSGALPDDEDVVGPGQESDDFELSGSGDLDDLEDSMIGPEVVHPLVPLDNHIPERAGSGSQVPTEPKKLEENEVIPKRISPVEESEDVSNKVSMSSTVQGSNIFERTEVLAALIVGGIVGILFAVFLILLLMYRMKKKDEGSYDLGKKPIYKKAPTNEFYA
Put plainly: SDC4 purified on FGF2-GST, salt eluted, heparitinase digested, incubated with lacritin-intein beads. The procedure: (§1) Lysates were cleared by centrifugation (20,000×g) at 4° C., and protein concentration of supernatant was estimated by the BCA assay (Pierce, Rockford Ill.). Lacritin-intein or lacritin-GST (5 µg) and FGF2-GST fusion proteins were respectively bound to chitin beads (New England Biolabs, Ipswich Mass.) or glutathione-Sepharose beads (Amersham Biosciences, Piscataway N.J.). Beads were incubated with lysates (~200 µg of SDC1 stably expressing HEK293T cells) overnight at 4° C., and washed three times with binding buffer as above (each wash three times the bead volume). In competition assays, SDC1 lysates were mixed with increasing amounts of soluble lacritin, HS, HS plus CS (Seikagaku America, Falmouth Mass.), bacterially expressed human SDC1 ectodomain (hS1ED), native SDC2, native SDC4, N-24 or C-25. Mixtures were then applied to lacritin immobilized beads, and further studied as described below. For sequential pull down assays, cell lysates were sequentially affinity precipitated with FGF2-GST or lacritin-intein. After FGF2-GST depletion of all available FGF-bindable SDC1, one-half was precipitated with lacritin-intein. The other half was methanol precipitated overnight and resuspended in heparitinase buffer. […]

The target of the next test is T2, human syndecan-1 (SDC1) (human, UniProt P18827 23-310, heparan sulfate and chondroitin sulfate chains; the lacritin-bindable form is partly or wholly deglycanated (heparanase or heparitinase)).
T2 construct: Seen as 190 kDa multimer and 80 kDa band on blots; also called cell surface SDC1; native SDC1
T2 sequence: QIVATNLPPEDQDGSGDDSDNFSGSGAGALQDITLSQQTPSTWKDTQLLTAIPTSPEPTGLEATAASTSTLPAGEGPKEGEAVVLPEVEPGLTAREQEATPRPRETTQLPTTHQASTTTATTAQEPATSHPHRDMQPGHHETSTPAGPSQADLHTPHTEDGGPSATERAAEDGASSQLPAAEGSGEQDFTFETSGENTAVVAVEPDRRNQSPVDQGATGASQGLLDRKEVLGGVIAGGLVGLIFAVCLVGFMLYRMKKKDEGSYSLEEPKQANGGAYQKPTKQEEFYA
The test is described as follows: lacritin-intein-chitin column, detergent lysate of surface biotinylated HSG cells, 1 M NaCl elution, streptavidin blot, mass spectrometry. On the procedure:
Cell surface biotinylation, and affinity chromatography followed the method of Chen et al (1997). Briefly, six 150 mm culture dishes of 80% confluent HSG cells were washed twice on ice with ice-cold PBS and incubated for 30 min with EZ-Link Sulfo-NHS-LC Biotin (Pierce, Rockford Ill.). Cells were then washed twice with PBS-glycine, gently loosened with a cell scraper, and pelleted at 4° C. The pellet was twice resuspended in 25 ml PBS-glycine, and incubated for 30 min in 1 ml lysis buffer (50 mM Tris HCl, pH 7.4, 100 mM NaCl, 5 mM MnCl2, 2 mM PMSF, 200 mM n-octyl-β-D-glucopyranoside, and protease inhibitors (Roche Diagnostics, Penzberg Germany)). Lysate was centrifuged for 15 min at 4° C., and the supernatant applied to a 1 ml pre-column then washed through with 1 ml of binding buffer (50 mM Tris HCl, pH 7.4, 100 mM NaCl, 5 mM MnCl2, 2 mM PMSF, 50 mM n-octyl-β-D-glucopyranoside) and collected. […] For the latter, blots were blocked with PBS containing 0.1% Tween-20 and 2.5% milk for 1 h at 37° C., washed three times with PBS/0.1% Tween-20, incubated in 50 ml of 1:1000 streptavidin-horseradish peroxidase conjugate (Amersham Biosciences, Piscataway N.J.) in PBS/0.1% Tween-20, washed five times with the same buffer and then detected using ECL reagent (Pierce, Rockford Ill.). […]

The target in another test is T3, human syndecan-2 (SDC2) (human, UniProt P34741 19-201, heparan sulfate chains).
T3 construct: also called native SDC2
T3 sequence (P34741 19-201 limits assumed): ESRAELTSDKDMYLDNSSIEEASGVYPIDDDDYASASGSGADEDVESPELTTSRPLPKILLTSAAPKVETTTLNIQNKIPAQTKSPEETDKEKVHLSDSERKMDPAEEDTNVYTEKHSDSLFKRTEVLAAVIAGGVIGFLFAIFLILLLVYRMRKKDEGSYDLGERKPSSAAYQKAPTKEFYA
The test is described as follows: SDC2 purified on FGF2-GST, salt eluted, heparitinase digested, incubated with lacritin-intein beads. On the procedure: as §1

B1: lacritin-intein (lacritin coupled to chitin beads via chitin-binding intein) (ligand, not shown: small tags and cut ends)
chain: EDASSDSTGADPAQEAGTSKPNEEISGPAEPASPPETTTTAQETSAAAVQGTAKVTSSRQELNPLKSIVEKSILLTEQALAKAGKGMHGGVPGGKQFIENGSEFAQKLLKKFSLLKPWA
notes: Bacterial fusion protein held on chitin beads; also called lacritin-intein beads; lacritin column
For the molecule B1, the binding result is “no binding” in the test with human syndecan-4 (SDC4), “binds” with human syndecan-1 (SDC1) and “no binding” with human syndecan-2 (SDC2).
